Columns and labels:
MERTK = MERTK (UniProt Q12866); assay: phosphorylation enrichment, bacterial display (enrichment ratio); higher = better substrate or ligand; peptides without Tyr show the background
Hck = Hck (UniProt P08631); assay: as above
Fes = Fes (UniProt P07332); assay: as above
EPHB2 = EPHB2 (UniProt P29323); assay: as above
AncSZ = assay: as above
c-Abl (mouse) = assay: as above
FGFR1 = FGFR1 (UniProt P11362); assay: as above
FGFR3 = FGFR3 (UniProt P22607); assay: as above
EPHB1 = EPHB1 (UniProt P54762); assay: as above
Jak2 = Jak2 (UniProt O60674); assay: as above
Fyn = Fyn (UniProt P06241); assay: as above
c-Src = assay: as above
Fer (mouse) = assay: as above
c-Src SH2 = assay: SH2 binding enrichment of the phosphorylated peptide, bacterial display (enrichment ratio); higher = better substrate or ligand; peptides without Tyr show the background
SHP2-C SH2 = assay: as above
Grb2 SH2 = Grb2 SH2 (UniProt P62993); assay: as above
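For SH2 binding enrichment of the phosphorylated peptide, bacterial display in this document: peptide library displayed on the E. coli surface as eCPX fusions, selected cells deep-sequenced, score is each peptide's frequency after selection divided by its frequency in the input.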
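For phosphorylation enrichment, bacterial display in this document: 11-residue human phosphosite peptides and single-mutation variants displayed on the E. coli surface, counted by deep sequencing, each peptide's frequency after selection divided by its frequency in the unselected input library; frequency after pTyr selection over input frequency; kinase dosed for 20-30% of maximal phosphorylation in three min.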

Sequence of Fes (P07332 whole entry, looked up): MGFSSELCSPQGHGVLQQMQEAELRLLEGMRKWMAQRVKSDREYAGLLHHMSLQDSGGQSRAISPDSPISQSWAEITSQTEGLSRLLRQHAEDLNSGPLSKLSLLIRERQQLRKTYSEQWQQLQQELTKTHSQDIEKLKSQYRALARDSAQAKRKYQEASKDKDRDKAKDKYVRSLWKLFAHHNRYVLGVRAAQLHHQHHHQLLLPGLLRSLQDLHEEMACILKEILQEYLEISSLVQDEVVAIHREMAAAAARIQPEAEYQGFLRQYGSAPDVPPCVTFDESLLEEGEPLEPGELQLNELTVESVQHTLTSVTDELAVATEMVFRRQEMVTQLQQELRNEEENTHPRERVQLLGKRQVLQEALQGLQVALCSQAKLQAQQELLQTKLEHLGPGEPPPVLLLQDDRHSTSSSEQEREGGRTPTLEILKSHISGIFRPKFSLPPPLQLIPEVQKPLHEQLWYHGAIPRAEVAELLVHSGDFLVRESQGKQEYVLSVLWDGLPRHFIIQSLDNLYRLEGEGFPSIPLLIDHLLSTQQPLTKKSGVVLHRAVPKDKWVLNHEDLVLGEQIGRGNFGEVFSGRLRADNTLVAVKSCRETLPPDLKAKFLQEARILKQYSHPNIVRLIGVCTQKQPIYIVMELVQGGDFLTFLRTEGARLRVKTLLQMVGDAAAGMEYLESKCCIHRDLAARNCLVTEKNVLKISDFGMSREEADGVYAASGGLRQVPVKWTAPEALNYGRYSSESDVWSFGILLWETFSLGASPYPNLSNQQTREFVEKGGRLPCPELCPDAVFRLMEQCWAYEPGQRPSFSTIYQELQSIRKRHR
Sequence of MERTK (Q12866 whole entry, looked up): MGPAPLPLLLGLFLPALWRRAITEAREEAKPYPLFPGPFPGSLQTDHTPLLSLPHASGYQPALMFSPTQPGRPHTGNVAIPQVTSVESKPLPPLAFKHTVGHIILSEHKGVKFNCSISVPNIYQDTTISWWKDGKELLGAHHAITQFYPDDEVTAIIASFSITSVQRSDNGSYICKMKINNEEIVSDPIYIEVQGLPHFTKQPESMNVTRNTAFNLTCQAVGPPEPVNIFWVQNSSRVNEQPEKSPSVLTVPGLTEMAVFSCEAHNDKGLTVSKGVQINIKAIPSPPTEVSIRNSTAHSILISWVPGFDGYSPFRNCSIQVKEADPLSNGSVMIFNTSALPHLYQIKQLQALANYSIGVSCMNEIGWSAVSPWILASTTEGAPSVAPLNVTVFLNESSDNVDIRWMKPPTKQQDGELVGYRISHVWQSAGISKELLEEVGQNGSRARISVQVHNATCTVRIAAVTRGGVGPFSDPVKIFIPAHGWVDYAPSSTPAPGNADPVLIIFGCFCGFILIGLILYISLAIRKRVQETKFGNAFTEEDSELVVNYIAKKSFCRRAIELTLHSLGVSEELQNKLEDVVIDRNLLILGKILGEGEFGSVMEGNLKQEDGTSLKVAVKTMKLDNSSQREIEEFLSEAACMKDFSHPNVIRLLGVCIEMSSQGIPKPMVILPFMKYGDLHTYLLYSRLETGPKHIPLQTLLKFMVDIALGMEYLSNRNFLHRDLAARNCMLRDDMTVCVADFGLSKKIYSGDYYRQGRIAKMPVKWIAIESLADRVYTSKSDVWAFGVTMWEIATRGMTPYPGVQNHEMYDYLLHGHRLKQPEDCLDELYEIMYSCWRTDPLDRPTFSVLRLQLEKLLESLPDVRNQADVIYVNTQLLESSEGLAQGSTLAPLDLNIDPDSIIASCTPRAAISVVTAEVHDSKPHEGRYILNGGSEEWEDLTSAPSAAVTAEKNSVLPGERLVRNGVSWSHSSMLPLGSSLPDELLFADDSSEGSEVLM
Sequence of Hck (P08631 whole entry, looked up): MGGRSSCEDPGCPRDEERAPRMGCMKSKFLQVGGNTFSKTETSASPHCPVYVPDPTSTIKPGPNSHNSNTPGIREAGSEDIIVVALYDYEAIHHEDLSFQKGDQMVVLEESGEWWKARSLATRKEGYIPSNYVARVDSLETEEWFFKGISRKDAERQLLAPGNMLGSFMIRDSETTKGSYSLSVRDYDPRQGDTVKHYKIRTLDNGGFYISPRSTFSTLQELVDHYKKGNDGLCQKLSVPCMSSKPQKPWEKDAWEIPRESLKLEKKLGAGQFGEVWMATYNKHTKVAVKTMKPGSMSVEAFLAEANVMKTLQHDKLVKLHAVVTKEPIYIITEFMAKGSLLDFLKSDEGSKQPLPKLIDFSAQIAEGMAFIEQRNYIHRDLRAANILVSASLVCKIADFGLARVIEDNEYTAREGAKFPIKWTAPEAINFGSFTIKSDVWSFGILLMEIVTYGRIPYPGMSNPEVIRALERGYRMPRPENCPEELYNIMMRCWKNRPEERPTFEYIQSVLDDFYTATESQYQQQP
Sequence of FGFR3 (P22607 whole entry, looked up): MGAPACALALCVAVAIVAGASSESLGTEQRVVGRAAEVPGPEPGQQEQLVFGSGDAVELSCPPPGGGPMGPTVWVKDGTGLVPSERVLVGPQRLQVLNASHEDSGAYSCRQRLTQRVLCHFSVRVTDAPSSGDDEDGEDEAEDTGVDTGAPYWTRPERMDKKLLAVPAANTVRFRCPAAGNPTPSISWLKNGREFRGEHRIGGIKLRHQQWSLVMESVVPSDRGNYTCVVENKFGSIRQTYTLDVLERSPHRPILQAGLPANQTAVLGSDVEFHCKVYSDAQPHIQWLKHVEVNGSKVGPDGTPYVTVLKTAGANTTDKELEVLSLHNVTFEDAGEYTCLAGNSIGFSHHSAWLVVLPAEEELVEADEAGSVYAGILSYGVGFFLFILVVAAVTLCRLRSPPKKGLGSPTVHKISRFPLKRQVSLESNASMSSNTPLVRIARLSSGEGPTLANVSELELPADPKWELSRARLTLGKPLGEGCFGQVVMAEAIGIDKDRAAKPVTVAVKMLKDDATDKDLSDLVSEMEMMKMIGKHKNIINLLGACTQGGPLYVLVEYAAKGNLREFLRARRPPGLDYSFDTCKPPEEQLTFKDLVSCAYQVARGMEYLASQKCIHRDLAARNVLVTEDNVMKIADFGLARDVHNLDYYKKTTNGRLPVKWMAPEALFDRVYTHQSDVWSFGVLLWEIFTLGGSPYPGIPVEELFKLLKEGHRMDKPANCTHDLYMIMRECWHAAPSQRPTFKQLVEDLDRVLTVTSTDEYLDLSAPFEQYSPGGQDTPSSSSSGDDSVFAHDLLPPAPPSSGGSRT
Sequence of FGFR1 (P11362 whole entry, looked up): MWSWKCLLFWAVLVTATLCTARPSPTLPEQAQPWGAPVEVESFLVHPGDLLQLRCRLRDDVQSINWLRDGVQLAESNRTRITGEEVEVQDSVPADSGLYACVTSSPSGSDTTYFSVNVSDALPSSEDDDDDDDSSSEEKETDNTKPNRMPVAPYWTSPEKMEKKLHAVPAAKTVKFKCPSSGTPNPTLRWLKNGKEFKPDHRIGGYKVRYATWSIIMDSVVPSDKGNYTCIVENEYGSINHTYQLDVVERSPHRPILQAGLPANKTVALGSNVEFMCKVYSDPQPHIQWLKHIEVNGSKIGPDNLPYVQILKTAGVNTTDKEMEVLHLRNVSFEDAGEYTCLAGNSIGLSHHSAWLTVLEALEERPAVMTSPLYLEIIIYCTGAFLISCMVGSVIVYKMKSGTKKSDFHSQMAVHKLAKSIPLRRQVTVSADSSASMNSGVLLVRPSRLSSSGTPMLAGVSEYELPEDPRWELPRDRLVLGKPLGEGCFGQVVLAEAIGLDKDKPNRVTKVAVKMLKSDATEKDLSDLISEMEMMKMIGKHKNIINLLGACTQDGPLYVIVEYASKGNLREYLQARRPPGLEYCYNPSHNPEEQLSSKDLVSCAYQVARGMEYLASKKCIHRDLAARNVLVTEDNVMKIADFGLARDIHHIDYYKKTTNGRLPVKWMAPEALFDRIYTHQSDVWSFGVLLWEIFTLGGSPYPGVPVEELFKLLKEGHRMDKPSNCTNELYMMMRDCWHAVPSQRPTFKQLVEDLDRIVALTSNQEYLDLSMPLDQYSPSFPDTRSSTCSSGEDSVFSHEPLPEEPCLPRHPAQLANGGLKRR
Sequence of Fyn (P06241 whole entry, looked up): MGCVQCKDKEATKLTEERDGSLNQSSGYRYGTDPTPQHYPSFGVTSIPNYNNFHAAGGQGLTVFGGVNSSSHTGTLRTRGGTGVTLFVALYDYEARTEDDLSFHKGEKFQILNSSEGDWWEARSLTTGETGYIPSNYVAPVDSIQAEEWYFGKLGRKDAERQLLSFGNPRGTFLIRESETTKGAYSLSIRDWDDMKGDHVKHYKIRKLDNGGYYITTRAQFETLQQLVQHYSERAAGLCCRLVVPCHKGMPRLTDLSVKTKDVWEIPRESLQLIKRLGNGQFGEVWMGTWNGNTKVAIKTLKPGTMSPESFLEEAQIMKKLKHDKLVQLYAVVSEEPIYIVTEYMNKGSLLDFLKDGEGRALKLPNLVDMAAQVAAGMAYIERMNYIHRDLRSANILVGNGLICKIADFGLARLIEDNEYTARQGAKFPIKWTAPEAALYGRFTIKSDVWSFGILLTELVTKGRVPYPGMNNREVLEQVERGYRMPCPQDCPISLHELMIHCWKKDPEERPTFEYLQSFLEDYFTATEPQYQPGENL
Sequence of Grb2 SH2 (P62993 whole entry, looked up, the tested form may be a part): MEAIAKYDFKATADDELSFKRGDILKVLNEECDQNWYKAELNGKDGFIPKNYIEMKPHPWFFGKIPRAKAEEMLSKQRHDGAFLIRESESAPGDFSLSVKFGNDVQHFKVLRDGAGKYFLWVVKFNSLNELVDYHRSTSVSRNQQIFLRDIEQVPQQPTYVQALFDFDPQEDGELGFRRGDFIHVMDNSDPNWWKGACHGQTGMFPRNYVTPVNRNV

Row | Sequence | phosphorylation enrichment (MERTK) | phosphorylation enrichment (Hck) | phosphorylation enrichment (Fes) | phosphorylation enrichment (EPHB2) | phosphorylation enrichment (AncSZ) | phosphorylation enrichment (c-Abl (mouse)) | phosphorylation enrichment (FGFR1) | phosphorylation enrichment (FGFR3) | phosphorylation enrichment (EPHB1) | phosphorylation enrichment (Jak2) | phosphorylation enrichment (Fyn) | phosphorylation enrichment (c-Src) | phosphorylation enrichment (Fer (mouse)) | SH2 binding enrichment (c-Src SH2) | SH2 binding enrichment (SHP2-C SH2) | SH2 binding enrichment (Grb2 SH2)
1 | TSEASYFKSLN [NGEF_Y288_YF] | 0.481 | 0.359 | 0.717 | 0.599 | 0.972 | 0.51 | 0.563 | 0.487 | 0.438 | 0.626 | 0.684 | 0.677 | 0.535 | 0.4 | 0.589 | 0.56
2 | TSIGNYFKPWF [DHCR24_Y299_N294T_YF] | 4.44 | 0.46 | 0.778 | 4.48 | 1.03 | 6.12 | 1.66 | 1.23 | 8.6 | 7.94 | 0.428 | 0.348 | 0.473 | 0.83 | 8.03 | 0.907
3 | TSLAQYDSNSK [BMX_Y216] | 0.444 | 0.428 | 0.736 | 0.568 | 0.622 | 0.543 | 0.525 | 0.443 | 0.352 | 0.579 | 0.344 | 0.479 | 0.37 | 0.438 | 0.622 | 0.826
4 | TSNQEYLDLSM [FGFR1_Y766] | 0.437 | 0.464 | 1.08 | 0.626 | 1.14 | 1.02 | 1.53 | 1.17 | 0.8 | 1.03 | 0.485 | 0.492 | 0.457 | 0.487 | 0.781 | 0.863
5 | TTEHIYGDNFF [UBA7_Y524] | 0.597 | 2.41 | 0.882 | 0.514 | 0.776 | 0.754 | 0.417 | 0.552 | 0.458 | 0.671 | 5.55 | 4.18 | 2.38 | 0.478 | 0.577 | 0.797
6 | TTKAKYKTPIF [PLD2_Y573_T577I_YF] | 0.495 | 0.411 | 0.717 | 0.263 | 0.588 | 0.632 | 0.481 | 0.572 | 0.38 | 0.659 | 0.499 | 0.434 | 0.487 | 0.764 | 1.14 | 1.06
7 | TVEDHDFEGGI [TKT_Y563_Y563D_YF] | 0.452 | 0.538 | 1.14 | 0.543 | 1.06 | 0.765 | 0.578 | 0.873 | 0.692 | 1.05 | 0.561 | 0.472 | 0.525 | 0.422 | 0.515 | 0.737
8 | TVLGEYALPKG [CYP24A1_Y407] | 0.585 | 0.565 | 0.621 | 0.542 | 1.15 | 6.83 | 0.45 | 0.562 | 0.58 | 0.592 | 0.491 | 0.39 | 0.404 | 0.572 | 0.429 | 0.707
9 | TYGQVYKGRHV [TNIK_Y40] | 0.942 | 6.44 | 0.488 | 0.506 | 0.484 | 0.711 | 0.493 | 0.533 | 0.507 | 0.482 | 8.37 | 6.62 | 0.528 | 0.676 | 0.964 | 0.974
10 | VDASFYGGRGV [ANTXR2_Y381_YF] | 0.377 | 0.91 | 0.632 | 0.338 | 0.561 | 0.443 | 0.32 | 0.463 | 0.396 | 0.574 | 0.447 | 0.391 | 0.336 | 0.5 | 0.576 | 0.721
11 | VEDQYYRVDCY [FHL1_Y208_C209R] | 0.94 | 0.993 | 1.46 | 0.712 | 2.93 | 0.958 | 7.43 | 6.22 | 0.711 | 1.98 | 0.892 | 1.55 | 0.598 | 0.897 | 0.677 | 0.891
12 | VEKEKYVSYIS [JMJD1C_Y596_M591V] | 0.444 | 0.434 | 0.826 | 0.489 | 0.76 | 0.698 | 0.453 | 0.567 | 0.487 | 0.866 | 0.464 | 0.5 | 0.466 | 0.507 | 0.748 | 0.978
13 | VFAANYFKLLG [ROR2_Y645_D644N_YF] | 1.13 | 0.526 | 1.04 | 0.648 | 0.872 | 0.73 | 2.44 | 1.58 | 0.645 | 5.33 | 0.58 | 0.56 | 0.472 | 1.03 | 0.985 | 0.991
14 | VFAPDFIAGVS [NOB1_Y366_Y366F] | 0.469 | 0.435 | 1.02 | 0.479 | 0.69 | 0.709 | 0.664 | 0.619 | 0.52 | 0.775 | 0.436 | 0.501 | 0.392 | 0.551 | 0.727 | 0.584
15 | VFFGSYSCPFG [NKAP_Y104_R106C_YF] | 0.836 | 0.518 | 1.5 | 0.786 | 1.45 | 1.15 | 0.476 | 0.92 | 0.802 | 1.33 | 0.437 | 0.55 | 0.679 | 0.476 | 0.552 | 0.598
16 | VFSSDYFSFVL [USP24_Y2138_YF] | 1.65 | 1.24 | 1.34 | 1.03 | 2.28 | 1.93 | 8.46 | 6.6 | 1.73 | 4.95 | 2.61 | 4.09 | 0.681 | 0.428 | 0.764 | 0.885
17 | VGTKRYVAPEV [ACVRL1_Y375_M376V] | 0.422 | 0.351 | 0.658 | 0.444 | 0.61 | 0.544 | 0.332 | 0.464 | 0.309 | 0.477 | 0.451 | 0.458 | 0.474 | 0.354 | 0.403 | 0.724

Row | Sequence | phosphorylation enrichment (MERTK) | phosphorylation enrichment (Hck) | phosphorylation enrichment (Fes) | phosphorylation enrichment (EPHB2) | phosphorylation enrichment (AncSZ) | phosphorylation enrichment (c-Abl (mouse)) | phosphorylation enrichment (FGFR1) | phosphorylation enrichment (FGFR3) | phosphorylation enrichment (EPHB1) | phosphorylation enrichment (Jak2) | phosphorylation enrichment (Fyn) | phosphorylation enrichment (c-Src) | phosphorylation enrichment (Fer (mouse)) | SH2 binding enrichment (c-Src SH2) | SH2 binding enrichment (SHP2-C SH2) | SH2 binding enrichment (Grb2 SH2)
18 | VHSGTYQVTVC [MYBPC3_Y1043_R1048C] | 0.575 | 0.588 | 1.23 | 0.655 | 1.03 | 0.883 | 0.51 | 0.93 | 0.749 | 1.01 | 0.555 | 0.684 | 0.516 | 0.517 | 0.599 | 0.694
19 | VIDGKYAFKPK [GTF2E2_Y137] | 0.323 | 0.412 | 0.457 | 0.304 | 0.413 | 0.585 | 0.348 | 0.329 | 0.264 | 0.421 | 0.348 | 0.328 | 0.276 | 0.451 | 0.602 | 0.873
20 | VIGRMYDYHVL [RPF2_Y109] | 5.17 | 0.538 | 0.859 | 1.7 | 0.966 | 0.65 | 6.62 | 3.7 | 1.33 | 0.976 | 0.504 | 0.643 | 9.05 | 1.93 | 1.71 | 0.927
21 | VIKSSYQVAKA [CPT1B_Y534_E531K] | 0.371 | 0.391 | 0.749 | 0.414 | 0.588 | 0.489 | 0.391 | 0.428 | 0.364 | 0.406 | 0.34 | 0.458 | 0.326 | 0.41 | 0.503 | 0.783
22 | VKPENYRRLDI [VHL_Y175] | 0.337 | 0.331 | 0.48 | 0.324 | 0.473 | 0.345 | 0.615 | 0.463 | 0.58 | 0.298 | 0.351 | 0.324 | 0.305 | 0.459 | 0.769 | 0.879
23 | VKPRRYRPGTV [H3-5_Y41_H39R] | 0.577 | 0.5 | 0.542 | 0.51 | 0.622 | 0.512 | 0.53 | 0.466 | 0.56 | 0.588 | 0.58 | 0.608 | 0.463 | 0.576 | 0.514 | 0.835
24 | VKYLGYPPPEI [KDR_Y357_A352V] | 0.427 | 0.451 | 0.719 | 0.491 | 0.7 | 0.796 | 0.666 | 0.626 | 0.468 | 0.489 | 0.486 | 0.403 | 0.37 | 0.495 | 1.84 | 0.896
25 | VLICAYLLHRG [PTEN_Y138_M134L] | 0.412 | 0.608 | 1.33 | 0.661 | 1.06 | 0.833 | 0.44 | 0.809 | 0.62 | 0.929 | 0.515 | 0.516 | 0.856 | 1.09 | 1.31 | 1.11
26 | VLSIDYYFPPQ [AR_Y552_P549S] | 3.5 | 0.881 | 1.09 | 3.2 | 6.35 | 1.24 | 13.3 | 10.8 | 3.13 | 6.81 | 1.03 | 2.17 | 0.605 | 1.34 | 1.55 | 1.47
27 | VLTSKHRGGGG [HBA1_Y141_Y141H] | 0.677 | 0.322 | 0.396 | 0.225 | 0.486 | 0.418 | 0.464 | 0.419 | 0.318 | 0.332 | 0.527 | 0.344 | 0.222 | 0.823 | 0.751 | 1.02
28 | VMAALYGRLFE [BTD_Y536_T532M_YF] | 1.34 | 5.53 | 1.18 | 0.743 | 0.981 | 0.967 | 0.457 | 0.752 | 0.597 | 1.03 | 6.68 | 6.1 | 0.612 | 1.18 | 1.44 | 1.59
29 | VMAALYGRLYE [BTD_Y536_T532M] | 3 | 5.58 | 0.963 | 1.42 | 0.795 | 0.8 | 0.468 | 0.617 | 0.961 | 0.864 | 5.87 | 5.01 | 1.38 | 1.52 | 1.53 | 1.3
30 | VNYGAYINYFK [GLB1_Y488_D491Y] | 0.629 | 1.1 | 1.06 | 2.03 | 0.894 | 0.941 | 0.905 | 0.986 | 1.9 | 1.7 | 1.22 | 1.08 | 0.488 | 1.23 | 1.12 | 3.13
31 | VQEDIYDEFVV [ALDH2_Y332_E337V] | 3.17 | 2.81 | 1.25 | 0.827 | 1.55 | 1.75 | 0.599 | 0.886 | 0.676 | 1.37 | 3.96 | 3.57 | 5.77 | 0.495 | 0.822 | 0.824
32 | VTPSEYLEIVR [TMEM130_Y412_E407V] | 0.387 | 0.751 | 0.859 | 0.618 | 0.969 | 0.681 | 0.557 | 0.736 | 1.21 | 0.762 | 0.51 | 0.44 | 0.45 | 0.521 | 0.825 | 0.763
33 | VTRKEYFIFLE [CAMKV_Y95] | 0.401 | 0.43 | 1.06 | 0.554 | 1.11 | 0.792 | 0.786 | 0.838 | 0.696 | 1.01 | 0.481 | 0.695 | 0.528 | 1.03 | 1.43 | 1.55
